Experimental data taken from patent US20120328512A1 (BRACCO IMAGING S P A, published 2012).
Bridge positions count the residues as written; N and C are the ends. Square brackets hold non-standard residues; d marks the D form. * marks the point of attachment. αGalNAc = CC(=O)N[C@@H]1[C@@H](O)[C@@H](O)[C@@H](CO)O[C@@H]1*; 5FAM = O=C1OC2(c3ccc(O)cc3Oc3cc(O)ccc32)c2ccc(C(=O)*)cc21; Phe(3,4-F2) = N[C@@H](Cc1ccc(F)c(F)c1)C(=O)O; Thf2ca = tetrahydrofuran-2-carboxylic acid; Phe(4-F) = N[C@@H](Cc1ccc(F)cc1)C(=O)O; Cha = N[C@@H](CC1CCCCC1)C(=O)O; CF5 = 5-carboxyfluorescein

Molecular target: DDE
Assay: direct binding fluorescence polarization: CF5-labeled peptide titrated with DDE; n = 2

Row | Kd | Binder
1 | 700 nM | Ac-WQPCPWESWT[Phe(3,4-F2)]CWDPGGGK(CF5)-NH2 (disulfide 4-12) [Seq020-CF5]
2 | 200 nM | Ac-WQPCPWESWT[Cha]CWDPGGGK(CF5)-NH2 (disulfide 4-12) [Seq018-CF5]
3 | 1210 nM | Thf2ca-WQPCPWESWTFCWDPGGGK(CF5)-NH2 (disulfide 4-12) [Seq028-CF5]
4 | 280 nM | H-RGWQPCPWESWTFCWDPGGGK(5FAM)-NH2 (disulfide 6-14; SMILES C[C@@H](O)[C@@H]1NC(=O)[C@H](Cc2c[nH]c3ccccc23)NC(=O)[C@H](CO)NC(=O)[C@H](CCC(=O)O)NC(=O)[C@H](Cc2c[nH]c3ccccc23)NC(=O)[C@@H]2CCCN2C(=O)[C@@H](NC(=O)[C@@H]2CCCN2C(=O)[C@H](CCC(N)=O)NC(=O)[C@H](Cc2c[nH]c3ccccc23)NC(=O)CNC(=O)[C@@H](N)CCCNC(=N)N)CSSC[C@@H](C(=O)N[C@@H](Cc2c[nH]c3ccccc23)C(=O)N[C@@H](CC(=O)O)C(=O)N2CCC[C@H]2C(=O)NCC(=O)NCC(=O)NCC(=O)N[C@@H](CCCCNC(=O)c2ccc3c(c2)C(=O)OC32c3ccc(O)cc3Oc3cc(O)ccc32)C(N)=O)NC(=O)[C@H](Cc2ccccc2)NC1=O) [Seq022-CF5]
5 | 500 nM | Ac-S(αGalNAc)WQPCPWESWTFCWDPGGGK(CF5)-NH2 (disulfide 5-13) [Seq027-CF5]
6 | 1020 nM | Ac-WQPCPWESWT[Phe(4-F)]CWDPGGGK(CF5)-NH2 (disulfide 4-12) [Seq019-CF5]
7 | 110 nM | H-RWQPCPWESWTFCWDPGGGK(5FAM)-NH2 (disulfide 5-13; SMILES C[C@@H](O)[C@@H]1NC(=O)[C@H](Cc2c[nH]c3ccccc23)NC(=O)[C@H](CO)NC(=O)[C@H](CCC(=O)O)NC(=O)[C@H](Cc2c[nH]c3ccccc23)NC(=O)[C@@H]2CCCN2C(=O)[C@@H](NC(=O)[C@@H]2CCCN2C(=O)[C@H](CCC(N)=O)NC(=O)[C@H](Cc2c[nH]c3ccccc23)NC(=O)[C@@H](N)CCCNC(=N)N)CSSC[C@@H](C(=O)N[C@@H](Cc2c[nH]c3ccccc23)C(=O)N[C@@H](CC(=O)O)C(=O)N2CCC[C@H]2C(=O)NCC(=O)NCC(=O)NCC(=O)N[C@@H](CCCCNC(=O)c2ccc3c(c2)C(=O)OC32c3ccc(O)cc3Oc3cc(O)ccc32)C(N)=O)NC(=O)[C@H](Cc2ccccc2)NC1=O) [Seq023-CF5]
8 | 240 nM | H-GWQPCPAESWTFCWDPGGGK(5FAM)-NH2 (disulfide 5-13; SMILES C[C@@H]1NC(=O)[C@@H]2CCCN2C(=O)[C@@H](NC(=O)[C@@H]2CCCN2C(=O)[C@H](CCC(N)=O)NC(=O)[C@H](Cc2c[nH]c3ccccc23)NC(=O)CN)CSSC[C@@H](C(=O)N[C@@H](Cc2c[nH]c3ccccc23)C(=O)N[C@@H](CC(=O)O)C(=O)N2CCC[C@H]2C(=O)NCC(=O)NCC(=O)NCC(=O)N[C@@H](CCCCNC(=O)c2ccc3c(c2)C(=O)OC32c3ccc(O)cc3Oc3cc(O)ccc32)C(N)=O)NC(=O)[C@H](Cc2ccccc2)NC(=O)[C@H]([C@@H](C)O)NC(=O)[C@H](Cc2c[nH]c3ccccc23)NC(=O)[C@H](CO)NC(=O)[C@H](CCC(=O)O)NC1=O) [Seq038-CF5]
